Data on two substances can be found in patent US5968782.

The assay addresses mouse fibrinogen (mouse) (UniProt E9PV24).

Bounds are passed on as bounds.

On to thrombin (enzyme), for which the time required for thrombin to clot mouse plasma (control) was 15 s.

Take “recombinant mMCP-7-FLAG (EK-activated mature mouse mast cell protease 7 with C-terminal FLAG peptide) (enzyme)”: the fibrinogenolysis assay: time required for thrombin to clot mouse plasma is greater than 40 s.
